According to patent publication US8715959B2, “Substitution mutant receptors and their use in a nuclear receptor-based inducible gene expression system” (priority 2001, dated 2014):

What was measured:
CfEcR-DEF [1] = assay: GAL4/mutant CfEcR-DEF + VP16/LmUSP-EF GAL4-driven luciferase reporter transactivation in NIH3T3 cells; type: cell-based, Choristoneura fumiferana
CfEcR-A/BCDEF = assay: GAL4/full length CfEcR-A/BCDEF or A110P mutant, EcRE-driven luciferase reporter in NIH3T3 cells (FIG. 2); type: cell-based, Choristoneura fumiferana; conditions: 40 hours
Text: To eliminate the possibility that the loss of steroid activity may be due to the truncated CfEcR-DEF receptor or an artifact of the GAL4 fusion protein, Applicants introduced the A110P mutation into the full length (FL) CfEcR (CfEcR-A/BCDEF), fused it to the GAL4 DNA binding domain as described in Example 1.4, and comparatively assayed it in NIH3T3 cells in 24-well plates as described in Example 2 above with full length wild type CfEcR (Example 1.3) in combination with VP16/LmUSP-EF and pFREcRE Luc that comprised the luciferase reporter gene operatively linked to six copies of the ecdysone response element (6×EcRE) and a synthetic TATAA. The transfected cells were grown in the presence of 0.25 or 10 μM PonA or GS™-E and the reporter activity was measured at 40 hours after adding ligand. The cells were harvested and the extracts were assayed for luciferase activity. The numbers on top of the bars indicate fold increase over DMSO levels.

CfEcR = assay: In vitro 3H-PonA ligand binding of CfEcR wild-type and A110 mutants (FIG. 5); design: species or system Choristoneura fumiferana; conditions: in vitro translated receptor with GST-CfUSP-A/BCDEF
CfEcR-CDEF = conditions: L57 cells, 40 hours, FIG. 3
Text: To determine whether the A110P mutant can respond to 20E, Applicants tested this A110P mutant-based gene expression system in an EcRE-driven reporter assay in insect L57 cells (a Drosophila melanogaster cell line that lacks EcR isoform B, the Drosophila melanogaster EcR isoform homolog of CfEcR isoform B from which the A110P mutant is derived, however L57 cells still contain EcR isoform A). The mutation was introduced into the VP16/CfEcR-CDEF fusion protein and operably linked to an baculovirus IE1 promoter and L57 cells were transfected with IE1VP16CfEcRCDEF (Example 1.5) or its A110P mutant version DNA (Example 1.6) along with a pMK43.2 β-galactosidase reporter gene under the control of 6× ecdysone response elements (“6×EcRE”; the pMK43.2 construct was obtained from Michael Koelle at Stanford University) in 24-well plates. Reporter activity for A110P mutant-based gene expression system transactivation was measured after 40 hours of treatment of the transfected cells with 0, 1, 10, 100, or 1000 nM 20E or GS™-E. The cells were harvested and the extracts were assayed for β-galactosidase (β-gal) and luciferase activity. β-Galactosidase was measured using Galacto-Star™ assay kit from TROPIX following the manufacturer's instructions.

CfEcR-DEF [2] = assay: GAL4 fusions of A110 mutants of CfEcR-DEF, reporter transactivation in NIH3T3 cells (FIG. 4); type: cell-based, Choristoneura fumiferana; conditions: 0.04-25 μM GS™-E or RH-125020, 48 hours
Method: Four mutations: A110S, A110P, A110L, and A110M were obtained. These four mutant and wild-type receptors were assayed in NIH3T3 cells.

Molecule	Fold increase over WT, 2.5 μM GS™-E (CfEcR-DEF [1]; 2.5 μM GS™-E non-steroidal ligand, NIH3T3 cells, relative to Gal4/wild-type CfEcR-DEF switch activity) [fold]	Fold increase over WT, 2.5 μM PonA (CfEcR-DEF [1]; 2.5 μM PonA steroidal ligand, NIH3T3 cells, relative to Gal4/wild-type CfEcR-DEF switch activity) [fold]	non-steroid activity (summary of Table 10) (CfEcR-DEF [1]; GS™-E, CfEcR-DEF point mutants)	steroid binding activity (summary of Table 10) (CfEcR-DEF [1]; PonA, CfEcR-DEF point mutants)	non-steroid activity of full length receptor versus full length WT CfEcR (CfEcR-A/BCDEF; 0.25 or 10 μM GS™-E)	PonA activity of full length receptor (CfEcR-A/BCDEF; 0.25 or 10 μM PonA)	PonA binding, of wild-type receptor binding (CfEcR)	reporter gene activity in the presence of 20E (CfEcR-CDEF; 1-1000 nM 20E)	reporter gene expression in the presence of GS™-E (CfEcR-CDEF; 1-1000 nM GS™-E)	non-steroid reporter activity compared to wild-type receptor (CfEcR-DEF [2])
A110P: CfEcR LBD substitution mutant, Alanine (A) to Proline (P); also made in CfEcR-A/BCDEF and CfEcR-CDEF (protein, listed as Choristoneura fumiferana) LTANQQFLIARLIWYQDGYEQPSDEDLKRITQTWQQADDENEESDTPFRQITEMTILTVQLIVEFAKGLPGFAKISQPDQITLLKACSSEVMMLRVARRYDAASDSVLFPNNQAYTRDNYRKAGMAYVIEDLLHFCRCMYSMALDNIHYALLTAVVIFSDRPGLEQPQLVEEIQRYYLNTLRIYILNQLSGSARSSVIYGKILSILSELRTLGMQNSNMCISLKLKNRKLPPFLEEIWDV	0.8	0.005	not significantly affected	essentially eliminated	no significant difference	completely lost	undetectable	slightly increased reporter gene activity	transactivated reporter gene expression	
A110M: CfEcR-DEF LBD substitution mutant, Alanine (A) to Methionine (M) (protein, listed as Choristoneura fumiferana) LTANQQFLIARLIWYQDGYEQPSDEDLKRITQTWQQADDENEESDTPFRQITEMTILTVQLIVEFAKGLPGFAKISQPDQITLLKACSSEVMMLRVARRYDAASDSVLFMNNQAYTRDNYRKAGMAYVIEDLLHFCRCMYSMALDNIHYALLTAVVIFSDRPGLEQPQLVEEIQRYYLNTLRIYILNQLSGSARSSVIYGKILSILSELRTLGMQNSNMCISLKLKNRKLPPFLEEIWDV										lower sensitivity and no detectable transactivation at the two lowest concentrations
